Source: patent US6512097
Where two headings read alike, the source gives them in different places.

Tests used:
[1] = target: T1, c-erbB-2 expressed on cells (SK-OV-3, SK-BR-3) (UniProt P04626 23-1255, limits assumed); assay: Scatchard on SK-OV-3 cells
T1 construct: whole, on cells; also called native c-erbB-2 expressed on cells; c-erbB-2 on SK-OV-3 cells
Protocol: (§1) All assays were performed in triplicate. […] The amount of labeled sFv bound to the cells was determined by counting the pellets in a gamma counter and the K_a, and K_d were calculated using the EBDA program (V 2.0, G. A. McPherson, 1983).

[2] = target: T2, c-erbB-2 ECD with a Ser-Gly-His6 C-terminal fusion (UniProt P04626 23-652); assay: SPR BIAcore
T2 construct: extracellular domain; Expressed from CHO cells, IMAC purified; coupled to a CM5 chip, coated on plates, or biotinylated with NHS-LC-biotin; also called c-erbB-2 extracellular domain; biotinylated c-erbB-2 ECD

[3] = target: T1, c-erbB-2 expressed on cells (SK-OV-3, …); assay: Scatchard on SK-OV-3 cells; remark: listed apart in the source
Protocol: as §1

[4] = target: T2, c-erbB-2 ECD with a Ser-Gly-His6 …; assay: SPR BIAcore; remark: listed apart in the source

Kd [1]: 54 nM
Kd [2]: 26 nM
koff [2]: 0.0064 s⁻¹
kon [2]: 240000 M⁻¹ s⁻¹
Kd [3]: 54 nM
Kd [4]: 26 nM
koff [4]: 0.0064 s⁻¹
kon [4]: 240000 M⁻¹ s⁻¹
B1: 741F8 sFv (scFv, V domains shown)
VH: EIQLVQSGPELKKPGETVKISCKASGYTFTNYGMNWVKQAPGKGLKWMGWINTNTGEPTYAEEFKGRFAFSLETSASTAYLQINNLKNEDTATYFCGRQFITYGGFANWGQGTLVTVSA
VL: DIVMTQSPKFMSTSVGDRVSISCKASQDVSTAVAWYQQKPGQSPKLLIYWTSTRHTGVPDRFTGSGSGTDYTLTISSVQAEDLALHYCQQHYRVPYTFGGGTKLEIK
